Molecular target: ErbB3 (human) (UniProt P21860)
Assay: cell-based or functional assay

inhibition of HRG-induced cell growth (CTG assay), OVCAR8-GFP cells: 49% | inhibition of HRG-induced cell growth (CTG assay), OVCAR-8-JMaCYT1 cells (ErbB4 overexpressing): < 20% | inhibition of HRG-induced cell growth (CTG assay), OVCAR-8-JMaCYT2 cells (ErbB4 overexpressing): < 20% | inhibition of HRG-induced cell growth (CTG assay), OVCAR-8 high ErbB4 expression clone #5: 8% | inhibition of HRG-induced cell growth (CTG assay), OVCAR-8 low ErbB4 expression clone #4: 45% | inhibition of HRG-induced cell growth (CTG assay), OVCAR-8 medium ErbB4 expression clone #9: 25% | inhibition of HRG-induced cell proliferation (CTG assay), OVCAR-8 GFP-expressing control cells, 1.25 uM seribantumab: 40.8% | inhibition of HRG-induced cell proliferation (CTG assay), OVCAR-8 parental cells, 1.25 uM seribantumab: 53.7% | inhibition of HRG-stimulated cell proliferation (CTG assay), A549 cells, 1.25 uM seribantumab, 10 nM HRG: 70% | inhibition of HRG-stimulated cell proliferation (CTG assay), OVCAR-8 cells, 1.25 uM seribantumab, 10 nM HRG: 41%
B1: Seribantumab (antibody, INN chains, looked up, V domains shown)
VH: EVQLLESGGGLVQPGGSLRLSCAASGFTFSHYVMAWVRQAPGKGLEWVSSISSSGGWTLYADSVKGRFTISRDNSKNTLYLQMNSLRAEDTAVYYCTRGLKMATIFDYWGQGTLVTVSS
VL: QSALTQPASVSGSPGQSITISCTGTSSDVGSYNVVSWYQQHPGKAPKLIIYEVSQRPSGVSNRFSGSKSGNTASLTISGLQTEDEADYYCCSYAGSSIFVIFGGGTKVTVLG
